Laboratory results as given in patent US20250177503A1, “COMPOSITIONS AND METHODS FOR TREATING AUTOIMMUNE DISORDERS” (THE REGENTS OF THE UNIVERSITY OF MICHIGAN, priority 2022, published 2025).

Tested on: CD4+CD25+Foxp3+T regulatory cells (Tregs)
Assay: Example III: dosing regimen optimisation, ND-OVA + IL-2/IC vs ND-OVA + wtIL-2, flow cytometry of peripheral blood CD4+ T cells
Format: in vivo, C57BL/6 mice
Conditions: summary of findings
Protocol: Animals were cared for following federal, state, and local guidelines. All work performed on animals was in accordance with and approved by Institutional Animal Care & Use Committee (IACUC) at the University of Michigan, Ann Arbor. Seven-week-old female C57BL/6 mice were randomly divided into 6 groups with 5 mice in each group. For Group 1 (ND-OVA_D−3,+7+IL2/IC_D3,4,5): 0.1 mL of ND-OVA (containing 0.1 mg OVA-II peptide) was injected into each mouse subcutaneously at the tail base at Day −3 and Day 7; 0.1 mL IL2/IC (containing 1 μg murine IL-2 and […] IL-2 mAb) was injected into each mouse intraperitoneally (i.p.) at Days 0, 1, 2, and Days 10, 11, 12. For Group 2 (ND-OVA_D−4,+6+IL2/IC_D4,5,6): 0.1 mL of ND-OVA (containing 0.1 mg OVA-II peptide) was injected into each mouse subcutaneously at the tail base at Day −4 and Day 6; 0.1 mL IL2/IC (containing […] murine IL-2 and 5 μg IL-2 mAb) was injected into each mouse intraperitoneally (i.p.) at Days 0, 1, 2, and Days 10, 11, 12. For Group 3 (ND-OVA_D−3,+7+IL2/IC_D3,4,5,6,7): 0.1 mL of ND-OVA (containing 0.1 mg OVA-II peptide) was injected into each mouse subcutaneously at the tail base at Day −3 and Day 7; 0.1 mL IL2 (containing 1 μg murine IL-2) was injected into each mouse intraperitoneally (i.p.) at Days 0, 1, 2, 3, 4 and Days 10, 11, 12, 13, 14. […]

B1: IL-2: recombinant murine IL-2 (wild type IL-2 protein) (protein, UniProt P04351 21-169, looked up)
Interleukin-2: APTSSSTSSSTAEAQQQQQQQQQQQQHLEQLLMDLQELLSRMENYRNLKLPRMLTFKFYLPKQATELKDLQCLEDELGPLRHVLDLTQSKSFQLEDAENFISNIRVTVVKLKGSDNTFECQFDDESATVVDFLRRWIAFCQSIISTSPQ
For B1, which “expansion of total Tregs and antigen-specific Tregs” value is on record?
The value was “fails to expand”.
